Reference: patent US12551573B2, “Compositions and methods for the targeting of PCSK9” (Scribe Therapeutics Inc., priority 2022, dated 2026)

B1: DOMAIN_15800 (protein, listed as Otolemur garnettii)
chain: MAFEDVAVYFSQEEWGLLDTAQRALYRHVMLENFTLVSSLGLSTSRPRVVVQLERGEEPWVPSRIDSTPARNAQGRRNPGS
B2: DOMAIN_16246 (protein, listed as Macaca mulatta)
chain: ASVTVTFDDVALYFSEQEWEILEKWQKQMYKQEMKTNYQTLDSLGYAFSKPDLITWMEQGRMLFISEQGCLDKTRRTTSPP
B3: DOMAIN_15356 (protein, listed as Acinonyx jubatus)
chain: TPDVVTFEDVAVCFSSGEWQCLTRAQRHLYTDVMLENYGNMLSAGLACPKPPLISHLEQGAVPCAEDLQDWGFLTCSFPVS
B4: DOMAIN_16050 (protein)
chain: PLESVTFEDVAVDFTQEEWSLLDKSQKNLFRNVMLETVTHLVSVGYQISKSDVIFQLEQGKELWPEAAGGLQGQSPDEVTP
modifications: Ovis aries
B5: DOMAIN_15451 (protein)
chain: PLKLVTFEDVAVDFTQEEWSLLDKSQKNLFRNVMMETIHHLVSVGYQISKSDVISQLEQGKELWSKAAGGFQGQRPGEHQG
modifications: Bison bison
B6: DOMAIN_15669 (protein, listed as Callorhinus ursinus)
chain: FQDSVTFEDVAVRFSSGEWQCLTRAQRHLYADVMLENYWNVISVGFAVPKPPLISHLEQGAEPCVQDLQDGGFLSCSFPVS
B7: DOMAIN_16115 (protein, listed as Bos taurus)
chain: VQGSVSFEDVAVGFSQEEWQILGPSQKALYWDVMLENYCNLVSVGYQAPTPNSLFQLEQGGPPWTVEGAALSSTCSGYQAT
B8: DOMAIN_15863 (protein)
chain: CWGLLSFKDISMEFTWEEWQLLDSAQKYLYRDVILENYSHLVSLGYHGTKPDLIFKLEQGEEPWMINARVSRQSYPEGWKE
modifications: Vulpes vulpes
B9: DOMAIN_15638 (protein, listed as Sapajus apella)
chain: MAFEDVAVYFSQEEWGLLDTAQRALYRRVMLDNFALVASLGLSTSRPRVVIQLERGEEPWVPSGTDMTMSRNTHRRRNSGF
B10: DOMAIN_15406 (protein)
chain: MAFEDVAVYFSQEEWGLLDTAQRALYRRVMLDNFALVASLGLSTSRPRVVIQLERGEEPWVPSGKDMTLARNTYGRLNSGS
modifications: Pan troglodytes
B11: DOMAIN_15839 (protein, listed as Callithrix jacchus)
chain: AQESMTFRDVAVFFSQDEWLHLDSAQRALYREVMLENYSTLVSLGIPFSMPKVIHQLQQGQDPCTVEGDVPSNTCLGFKTW
B12: DOMAIN_15269 (protein)
chain: YRGPVTFKDITVEFTREEWKLLDTAQRTLYREVMQENYSHLISVGYCANRPNAIFKLKQGKEPWILEVQFPRQKNPEDLCN
modifications: Ovis aries
B13: DOMAIN_15279 (protein, listed as Callithrix jacchus)
chain: VNDLVTFKDVAIDFSQEEWQWMNPAQKRLYRSMMLENYQSLVSLGLCVSKPYVISLLEQGREPWEMTSEMRRSPFSDWESI
B14: DOMAIN_15251 (protein, listed as Callithrix jacchus)
chain: AAGRVTFEDVTVSFTKGEWQQLNPEQRELYRDVMLENYGNLVSVGLEETSKPSVILRLEEGKEPWSEEEVLRGGRPEKNWD
B15: DOMAIN_24125 (protein, listed as Saimiri boliviensis)
chain: MAFEDVAVYFSQEEWGLLDTAQRALYRRVMLDNFALVASLGLSTTRPRVVIQLERGEEPWVPSGTDMTMSRNAHRRRNPGS

System: HBEGF locus
Format: cell-based, human
Settings: high-throughput screen of dXR repression of the HBEGF gene; abundance of each domain in the library before and after diphtheria toxin selection; HEK293T cells

Going from B1 to B2, the “Log2 (fold change)” value falls from 3.4462 to 2.3971.

Going from B3 to B4, the “Log2 (fold change)” value falls from 3.5466 to 2.7105.

First: B5
Second: B6
The “Log2 (fold change)” value of the first is higher: 3.2905 for the first, 2.8865 for the second.

B7 and B8 are within 0.2 log units of each other in “Log2 (fold change)” value: 2.9023 for the first, 2.7434 for the second.

B9 and B10 are within 0.2 log units of each other in “Log2 (fold change)” value: 3.4277 for the first, 3.4616 for the second.

Compared with B11, B12 is lower in “Log2 (fold change)” value: 2.3399 for the first, 2.0839 for the second.

First: B13
Second: B14
The “Log2 (fold change)” value of the first is higher: 3.8574 for the first, 2.2209 for the second.

Same assay, conditions: high-throughput screen of dXR repression of the HBEGF gene; change in abundance of each domain in the library before and after diphtheria toxin selection

With B15 the “Log2 (fold change)” value was 3.9692.
